# From patent US8198236B2, “Methods and compositions for the treatment of cancer” (Washington University, priority 2007, dated 2012)
# B1: Mesd: Recombinant full-length mouse Mesd expressed in E. coli, N-terminal polyhistidine tail, lacking the signal peptide (protein)
# chain: ADTPGEATPPPRKKKDIRDYNDADMARLLEQWEKDDDIEEGDLPEHKRPSAPIDFSKLDPGKPESILKMTKKGKTLMMFVTVSGNPTEKETEEITSLWQGSLFNANYDVQRFIVGSDRAIFMLRDGSYAWEIKDFLVSQDRCAEVTLEGQMYPGKGGGSKEKNKTKPEKAKKKEGDRKPRASKEDNRAGSRREDL
# modifications: left off: small tags and cut ends
# notes: Recombinant full-length mouse Mesd expressed in E. coli, N-terminal polyhistidine tail, lacking the signal peptide
# Molecular target: T1, LRP6 (Homo sapiens, UniProt O75581)
# T1 construct: expressed in transfected cells; host or cells: human HT1080 cells, retroviral vector pLNCX2
# Experiment: LRP6-mediated 125I-Mesd degradation in LRP6-transduced HT1080 cells
# Format: cell-based
# Details: 4 hours at 37° C.
# Description: Ligand degradation was performed using the methods as described in Li, Y., et al., J. Biol. Chem. 275: 17187-17194, 2000. Briefly, 2×10^5 cells were seeded into 12-well dishes 1 day prior to assay. Pre-warmed assay buffer (minimal Eagle's medium containing 0.6% BSA with radioligand, 0.6 ml/well) was added to cell monolayers in the absence or the presence of unlabeled 500 nM RAP or 500 nM Mesd, followed by incubation for 4 hours at 37° C. Thereafter, the medium overlying the cell monolayers was removed and proteins were precipitated by addition of BSA to 10 mg/ml and trichloroacetic acid to 20%. Degradation of radioligand was defined as the appearance of radioactive fragments in the overlying medium that were soluble in 20% trichloroacetic acid. Kinetic analysis of endocytosis LRP6-transduced HT1080 cells were plated in 12-well plates at a density of 2×10^5 cells/well and used after overnight culture. Cells were rinsed twice in ice-cold assay buffer (minimal Eagle's medium containing 0.6% BSA), and ^125I-anti-HA IgG was added at 1 nM final concentration in cold assay buffer (0.5 ml/well). The binding of ^125I-anti-HA IgG was carried out at 4° C. for 90 minutes with gentle rocking Unbound ^125I-anti-HA IgG was removed by washing cell monolayers three times with cold assay buffer. Ice-cold stop/strip solution (0.2 M acetic acid, pH 2.6, 0.1 M NaCl) was added to one set of plates without warming up and kept on ice. The remaining plates were then placed in a 37° C. water bath and 0.5 ml assay buffer prewarmed to 37° C. was quickly added to cell monolayers to initiate internalization. After each time point, the plates were quickly placed on ice and the assay buffer was replaced with cold stop/strip solution. ^125I-anti-HA IgG that remained on the cell surface was stripped by incubation of cell monolayers with cold stop/strip solution for a total of 20 minutes (0.75 ml for 10 minutes, twice) and counted. Cell monolayers were then solubilized with low-SDS lysis buffer and counted. […] The fraction of internalized ^125I-anti-HA IgG after each time point was calculated and plotted. […]
# T1 sequence (O75581 20-1613): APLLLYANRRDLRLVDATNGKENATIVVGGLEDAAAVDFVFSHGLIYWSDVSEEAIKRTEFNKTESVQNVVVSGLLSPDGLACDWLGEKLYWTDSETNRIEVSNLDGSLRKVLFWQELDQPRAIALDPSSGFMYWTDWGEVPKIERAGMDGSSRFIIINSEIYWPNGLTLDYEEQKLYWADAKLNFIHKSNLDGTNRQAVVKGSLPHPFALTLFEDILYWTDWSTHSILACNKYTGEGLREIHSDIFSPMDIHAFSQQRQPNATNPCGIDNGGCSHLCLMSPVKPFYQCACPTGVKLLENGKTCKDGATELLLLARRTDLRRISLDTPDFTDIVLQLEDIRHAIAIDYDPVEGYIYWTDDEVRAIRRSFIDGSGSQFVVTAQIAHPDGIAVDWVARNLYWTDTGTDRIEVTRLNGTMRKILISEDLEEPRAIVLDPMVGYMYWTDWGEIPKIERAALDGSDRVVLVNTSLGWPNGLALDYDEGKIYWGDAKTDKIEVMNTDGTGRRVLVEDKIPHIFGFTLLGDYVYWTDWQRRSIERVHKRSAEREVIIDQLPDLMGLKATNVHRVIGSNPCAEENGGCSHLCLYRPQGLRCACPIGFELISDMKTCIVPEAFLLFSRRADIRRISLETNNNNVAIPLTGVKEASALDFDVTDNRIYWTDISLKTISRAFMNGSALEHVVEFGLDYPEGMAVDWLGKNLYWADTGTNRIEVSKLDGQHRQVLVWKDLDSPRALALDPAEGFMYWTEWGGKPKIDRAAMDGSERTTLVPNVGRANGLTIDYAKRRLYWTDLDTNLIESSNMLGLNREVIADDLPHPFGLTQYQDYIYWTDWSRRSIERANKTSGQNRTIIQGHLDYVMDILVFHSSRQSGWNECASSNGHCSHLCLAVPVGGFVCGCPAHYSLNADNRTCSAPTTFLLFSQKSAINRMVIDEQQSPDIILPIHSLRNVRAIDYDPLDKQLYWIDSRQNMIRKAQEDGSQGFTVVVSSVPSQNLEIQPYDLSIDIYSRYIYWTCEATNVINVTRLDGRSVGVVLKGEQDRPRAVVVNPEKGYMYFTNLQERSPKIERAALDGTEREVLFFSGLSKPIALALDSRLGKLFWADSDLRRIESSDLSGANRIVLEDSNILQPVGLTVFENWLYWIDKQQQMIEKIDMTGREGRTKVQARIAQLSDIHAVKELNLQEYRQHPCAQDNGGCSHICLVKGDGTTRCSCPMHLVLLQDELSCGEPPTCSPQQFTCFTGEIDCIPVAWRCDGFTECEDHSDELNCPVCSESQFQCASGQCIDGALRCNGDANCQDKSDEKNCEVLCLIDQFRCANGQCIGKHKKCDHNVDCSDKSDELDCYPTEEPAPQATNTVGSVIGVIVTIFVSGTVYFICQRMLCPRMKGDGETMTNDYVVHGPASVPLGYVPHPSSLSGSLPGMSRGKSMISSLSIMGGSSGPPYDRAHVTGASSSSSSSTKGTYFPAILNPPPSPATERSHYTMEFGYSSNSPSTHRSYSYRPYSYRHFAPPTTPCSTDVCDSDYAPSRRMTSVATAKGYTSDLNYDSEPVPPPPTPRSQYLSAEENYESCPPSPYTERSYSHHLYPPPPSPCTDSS
molecule,measurement,setting,value
B1,125I-Mesd degradation,5 nM,320 fmoles/mg cell protein
same,Inhibition of 125I-Mesd degradation,500 nM unlabeled competitor,completely
